± gives the uncertainty stated by the source.
B1: PMS1 protein homolog 1, residues 572 to 637; numbered along this chain, P54277 (parent)
chain: KKPMSASALFVQDHRPQFLIENPKTSLEDATLQIEELWKTLSEEEKLKYEEKATKDLERYNSQMKR

Variants of: B1
Test: abundance fitness (aPCA) (normalised: wild type 0, dead -1); higher = more abundant; growth selection in yeast, the domain comes from the species named
Conditions: Homo sapiens

Row | Variant | abundance fitness
1 | KKPMSASALFVQDHHPQFLIENPKTSLEDATLQIEELWKTLSEEEKLKYEEKATKDLERYNSQMKR | -0.227 ± 0.15
2 | KKPMSASALFVQDHFPQFLIENPKTSLEDATLQIEELWKTLSEEEKLKYEEKATKDLERYNSQMKR | 0.035 ± 0.43
3 | KKPMSASALFVQDHRPQFLIENPKMSLEDATLQIEELWKTLSEEEKLKYEEKATKDLERYNSQMKR | -0.156 ± 0.17
4 | KKPMSASALFVQDHRPQFLIENPKTSLEDATLQIQELWKTLSEEEKLKYEEKATKDLERYNSQMKR | -0.414 ± 0.47
5 | KKPMSASALFVQDHRPQFLIENPKTSLEDAELQIEELWKTLSEEEKLKYEEKATKDLERYNSQMKR | -0.142 ± 0.25
6 | KKPMSASALFVQDHRPQFLIENPKTSLEDARLQIEELWKTLSEEEKLKYEEKATKDLERYNSQMKR | -0.089 ± 0.13
7 | KKPMSASALFVQDHRPQFLIENPKTSLEDATLQIEELWKGLSEEEKLKYEEKATKDLERYNSQMKR | -0.041 ± 0.075
8 | KKPMSASALFVQDHRPQFLIENPKTSLEDATLQIEELWKRLSEEEKLKYEEKATKDLERYNSQMKR | -0.125 ± 0.071
9 | KKPMSASALFVQDHRPQFLIENPKTSLEDATLQIEELWKTLSEIEKLKYEEKATKDLERYNSQMKR | -0.345 ± 0.086
10 | KKPMSASALFVQDHRPQFLIENPKTSLEDATLQIEELWKTLSENEKLKYEEKATKDLERYNSQMKR | -0.385 ± 0.14
11 | KKPMSASALHVQDHRPQFLIENPKTSLEDATLQIEELWKTLSEEEKLKYEEKATKDLERYNSQMKR | -0.183 ± 0.39
12 | KKPMSASALFVQDHRPQFLIENPKTSLEDATLQIEELWKTLSEEEKLKYEEKPTKDLERYNSQMKR | -0.377 ± 0.069
13 | KKPMSASALFVQDHRPQFLIENPKTSLEDATLQIEELWKTLSEEEKLKYEEKVTKDLERYNSQMKR | -0.26 ± 0.058
14 | KKPMSASALFVQDHRPQFLIENPKTSLEDATLQIEELWKTLSEEEKLKYEEKETKDLERYNSQMKR | -0.227 ± 0.08
15 | KKPMSASALFVQDHRPQFLIENPKTSFEDATLQIEELWKTLSEEEKLKYEEKATKDLERYNSQMKR | 0.224 ± 0.23
16 | KKPMSASALFVQDHRPQFLIENPKTSLEDATLQIEELWKTVSEEEKLKYEEKATKDLERYNSQMKR | -0.023 ± 0.1
17 | KKPMSASALFVQDHRPQFLIENPKTSLEDATLQIEELWKTTSEEEKLKYEEKATKDLERYNSQMKR | -0.007 ± 0.086
18 | KKPMSASALFVQDHRPQFLIENPKTSLEDATLQIEELWKTLSEEEKLKYEEKATKDLERYGSQMKR | -0.201 ± 0.066
19 | KKPMSASALFVQDHRPQFLIENPKTSLEDATLQIEELWYTLSEEEKLKYEEKATKDLERYNSQMKR | -0.104 ± 0.39
20 | KKPMSASALFVQDHRPQFLIENPKTSLEDATLQIEELWITLSEEEKLKYEEKATKDLERYNSQMKR | -0.535 ± 0.46
21 | KKPMSASALFVQDHRPQFLIENPKTSLEDATLQIEELWKTLSEEEKLKYEEKATKNLERYNSQMKR | -0.283 ± 0.11

Row | Variant | abundance fitness
22 | KKPMSASALFVQDHRPQFLIENPKTSLEDATLQIEELWKTLSEEEKLKYEEKATKQLERYNSQMKR | -0.162 ± 0.15
23 | KKPMSASALFVQDHRPQFLIENPKTSLEDATLQIEELWKTLSEEEKLKYEEKATKSLERYNSQMKR | -0.035 ± 0.074
24 | KKPMSASALFVQDHRPQFLIENPKTSLEDATLQIEELWKTLSEEEKLKYEEKATKDLERYNIQMKR | -0.249 ± 0.14
25 | KKPMSASALFVQDHRPQFLIENPKTSLEDATLQIEELWKTLSEEEKLKYEEKATKDLERYNQQMKR | -0.027 ± 0.085
26 | KKPMSASALFVQDHRPQFLIENPKTSLEDATLQIEELWKTLSEEEKLKYEEKATKDLERYNFQMKR | -0.067 ± 0.078
27 | KKPMSASALFVQDHRPQFLIENPKTSLEDATLQIEELWKTLSEEEKLKYEEKATKDLERYNVQMKR | -0.078 ± 0.063
28 | KKPMSASALFVQDHRPQFLIENPKTSLEDATLQIEELWKTLSEEEKLKYEEKATKDLERYNSQMHR | -0.373 ± 0.25
29 | KKPMSASALFVQDHRPQFLIENPKTSLEDATLQIEELWKTLSEEEKLKYEEKATKDLERYNSQMPR | 0.009 ± 0.13
30 | KKPMSASALFVQDHRPQFLIENPKTSLEDATLQIEELWKTLSTEEKLKYEEKATKDLERYNSQMKR | 0.032 ± 0.073
31 | KKPMSASALFVQDHRPQFLIENPKTSLEDATLQIEELWKTLSEEEKLKYEEKATKDLKRYNSQMKR | -0.043 ± 0.084
32 | KKPMSASALFVQDHRPQFLIENPKTSLEDATLQIEELWKTLSEEEKLVYEEKATKDLERYNSQMKR | -0.008 ± 0.1
33 | KKPMSASALFVQDHRPQFLIENPKTSLEDATLQIEELWKTLSEEEKLHYEEKATKDLERYNSQMKR | -0.426 ± 0.36
34 | KKPMSASALFVQDHRPQFLIENPKTLLEDATLQIEELWKTLSEEEKLKYEEKATKDLERYNSQMKR | -0.538 ± 0.053
35 | KKPMSASALFVQDHRPQFLIENPKTMLEDATLQIEELWKTLSEEEKLKYEEKATKDLERYNSQMKR | -0.482 ± 0.067
36 | KKPMSASALFVQDHRPQFLIENPKTWLEDATLQIEELWKTLSEEEKLKYEEKATKDLERYNSQMKR | -1.3 ± 0.11
37 | KKPMSASALFVQDHRPQFLIENPKTSLEDATLQIEELWKTLSEENKLKYEEKATKDLERYNSQMKR | -0.476 ± 0.18
38 | KKPMSASALFVQDHRPQFLIENPKTSLEDATLQIEELWKTLSEERKLKYEEKATKDLERYNSQMKR | -0.187 ± 0.068
39 | KKPMSASALFVQDHRPQFLIENPKTSLEDATLQIEELWKTLSEEEKWKYEEKATKDLERYNSQMKR | -0.141 ± 0.097
40 | KKPMSASALFVQDHRPQFLIENPKTSLEDATLQIEELWKTLSEEEKRKYEEKATKDLERYNSQMKR | -0.091 ± 0.12
41 | KKPMSASALFVQDHRPQFLIENPKTSLEDATLQIEELWKTLSEEEKNKYEEKATKDLERYNSQMKR | 0.202 ± 0.42
